Measurements: US20070128190A1

Experiments:
TMC-2206 [1] = assay: fusion protein competing Eu-TMC-2206 off α2β1-coated plate
TMC-2206 [2] = assay: ELISA, GST fusion protein on immobilized TMC-2206 (Kd apparent)
[3] = biological target: human α2β1 integrin on human cells (platelets, leukocytes, HT1080) (human) (UniProt P17301); assay: cell-based or functional assay
[4] = biological target: human platelet α2β1 integrin (immobilized on microtiter plates) (human) (UniProt P17301); assay: competition with Eu-TMC-2206 on platelet α2β1-coated plates
[5] = biological target: Humanized TMC-2206 (hIgG4/κ VH12.0/VL10.0Q); assay: fusion protein competing Eu-humanized TMC-2206 off α2β1-coated plates
TMC-2206 [6] = assay: ELISA, GST fusion protein on immobilized TMC-2206
TMC-2206 [7] = assay: ELISA, GST fusion protein on immobilized TMC-2206, Kd estimated from EC50

| Substance | Ki (TMC-2206 [1]) [nM] | Kd (TMC-2206 [2]) [nM] | further results |
| --- | --- | --- | --- |
| 10G11 (antibody) | – | – | EC50, adhesion of resting platelets to Type I collagen [3]: > 200 nM |
| AK7 (antibody) | – | – | Ki [4]: 0.07 nM |
| GST-rat α2 I domain fusion protein (from UniProt Q62469 150-377) | 3.8 | – | Ki [5]: 5.23 nM; fold decrease in Ki compared to the human α2 I domain [5]: 9 fold; fold shift in Kd compared to human α2 (TMC-2206 [6]): 3 fold; Kd (TMC-2206 [7]): 0.54 nM |
| GST-hα2 I domain V70I (from UniProt P17301 153-368) | 0.86 | 0.44 | – |
| GST-mα2 I domain H93Y (from UniProt Q62469 150-377) | 20.2 | – | fold decrease in potency relative to the wt human α2 I domain (TMC-2206 [1]): 200 fold |
| GST-hα2 I domain Y93H (from UniProt P17301 153-368) | – | 6.1 | fold decrease in apparent affinity (TMC-2206 [6]): 23 fold |

Further substances by falling Ki (TMC-2206 [1]), results first:

| Ki (TMC-2206 [1]) [nM] | Kd (TMC-2206 [2]) [nM] | Substance | further results |
| --- | --- | --- | --- |
| 0.83 | 0.19 | GST-hα2 I domain V71I (from UniProt P17301 153-368) | – |
| 0.73 | 0.19 | GST-hα2 I domain Q48T (from UniProt P17301 153-368) | – |
| 0.4 | 0.28 | GST-hα2 I domain N67E (from UniProt P17301 153-368) | – |
| 0.39 | 0.22 | GST-hα2 I domain Y77F (from UniProt P17301 153-368) | – |
| 0.38 | 0.15 | GST-hα2 I domain Q105E (from UniProt P17301 153-368) | – |
| 0.35 | 0.23 | GST-hα2 I domain E44V (from UniProt P17301 153-368) | – |
| 0.24 | 0.28 | GST-hα2 I domain I21V (from UniProt P17301 153-368) | – |
| 0.15 | 0.17 | GST-hα2 I domain T76D (from UniProt P17301 153-368) | – |
